Experimental data from patent publication US5451571A (The Cleveland Clinic Foundation, priority 1994, dated 1995).
No end group written: not given here.

Test system: brain punch homogenate from the A2 region
Format: biochemical, dog
Conditions: pH 7.5
Excerpt: To study the metabolism of angiotensin in brain punch homogenates, ^125 I-labelled Ang I and Ang II (New England Nuclear, Boston, Mass., USA) were purified initially to remove the peptidase inhibitor trasylol by reverse phase high performance liquid chromatography (HPLC) using a Nova-Pak C column (Waters Associates, Milford, Mass., USA). Peptides were eluted isocratically with 33.6% acetonitrile (Burdick and Jackson, American Scientific Products, Columbus, Ohio, USA) in 0.13% heptafluorbutyric acid (HFBA; Sequenal grade, Pierce, Rockford, Ill., USA) at a flow rate of 1 ml/min. The effluent (0.25 ml/fraction) was collected in tubes precoated with bovine serum albumin (BSA; Pentex, Miles Scientific, Naperville, Ill., USA). After evaporation in a vacuum centrifuge (Savant, Farmingdale, N.Y., USA), the purified peptides were redissolved in water.
The metabolism of ^125 I-Ang I and ^125 I-Ang II was studied by incubating 10 μl of brain homogenates with 190 μl of an assay solution containing 50 pM labelled standards in 20 mM Tris HCl buffer, pH 7.5, and 0.01% BSA for 2 to 15 minutes at 37° C. The reactions were stopped by the addition of 100 μl of 32% acetonitrile containing 0.13% HFBA, followed by centrifugation at 18,000 g for 2 minutes. […]

## ^125 I-Ang II: 125I-labelled Ang II used as substrate (DRVYIHPF; also: 125I label; UniProt P01019 25-32, looked up)
  major / primary metabolic product of the labelled peptide: Ang-(1-7)
